Results from patent publication US20180037645A1.
Where two headings read alike, the source gives them in different places.

Key:
[1] = target: IL-23 alanine shave mutant M10 (human) (UniProt P29460); assay: cell-based or functional assay
[2] = target: IL-23 alanine shave mutant M7 (human) (UniProt P29460); assay: cell-based or functional assay
[3] = target: IL-23 alanine shave mutant M9 (human) (UniProt P29460); assay: cell-based or functional assay
[4] = target: wild-type IL-23 (His-tagged p19 / non-tagged p40) (human) (UniProt P29460); assay: cell-based or functional assay
IL-23 D118A (human) [5] = target: IL-23 D118A (human) (UniProt P29460); assay: cell-based or functional assay
IL-23 D55A (human) [6] = target: IL-23 D55A (human) (UniProt P29460); assay: cell-based or functional assay
IL-23 E112A (human) [7] = target: IL-23 E112A (human) (UniProt P29460); assay: cell-based or functional assay
IL-23 H53A (human) [8] = target: IL-23 H53A (human) (UniProt P29460); assay: cell-based or functional assay
IL-23 L116A (human) [9] = target: IL-23 L116A (human) (UniProt P29460); assay: cell-based or functional assay
IL-23 M54A (human) [10] = target: IL-23 M54A (human) (UniProt P29460); assay: cell-based or functional assay
[11] = target: wild-type IL-23 (His-tagged p19 / non-tagged p40) (human) (UniProt P29460); assay: cell-based or functional assay; remark: listed apart in the source
[12] = target: IL-23 alanine shave mutant M5 (human) (UniProt P29460); assay: cell-based or functional assay
IL-23 D118A (human) [13] = target: IL-23 D118A (human) (UniProt P29460); assay: SPR (Biacore T100), antibody captured by protein A
IL-23 D55A (human) [14] = target: IL-23 D55A (human) (UniProt P29460); assay: SPR (Biacore T100), antibody captured by protein A
IL-23 E112A (human) [15] = target: IL-23 E112A (human) (UniProt P29460); assay: SPR (Biacore T100), antibody captured by protein A
IL-23 H53A (human) [16] = target: IL-23 H53A (human) (UniProt P29460); assay: SPR (Biacore T100), antibody captured by protein A
IL-23 L116A (human) [17] = target: IL-23 L116A (human) (UniProt P29460); assay: SPR (Biacore T100), antibody captured by protein A
IL-23 M54A (human) [18] = target: IL-23 M54A (human) (UniProt P29460); assay: SPR (Biacore T100), antibody captured by protein A
[19] = target: IL-23 alanine shave mutant M10 (human) (UniProt P29460); assay: SPR (Biacore T100), antibody captured by protein A
[20] = target: IL-23 alanine shave mutant M5 (human) (UniProt P29460); assay: SPR (Biacore T100), antibody captured by protein A
[21] = target: IL-23 alanine shave mutant M7 (human) (UniProt P29460); assay: SPR (Biacore T100), antibody captured by protein A
[22] = target: IL-23 alanine shave mutant M9 (human) (UniProt P29460); assay: SPR (Biacore T100), antibody captured by protein A

Sequence of IL-23 M54A (human) (chain, as listed by the source M54A M54A, chain 1 of 2): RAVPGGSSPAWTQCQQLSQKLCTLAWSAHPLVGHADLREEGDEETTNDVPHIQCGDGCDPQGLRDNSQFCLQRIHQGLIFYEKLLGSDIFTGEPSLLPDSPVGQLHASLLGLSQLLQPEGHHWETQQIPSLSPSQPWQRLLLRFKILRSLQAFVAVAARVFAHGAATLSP
Sequence of IL-23 M54A (human) (P29460 23-328, chain 2 of 2): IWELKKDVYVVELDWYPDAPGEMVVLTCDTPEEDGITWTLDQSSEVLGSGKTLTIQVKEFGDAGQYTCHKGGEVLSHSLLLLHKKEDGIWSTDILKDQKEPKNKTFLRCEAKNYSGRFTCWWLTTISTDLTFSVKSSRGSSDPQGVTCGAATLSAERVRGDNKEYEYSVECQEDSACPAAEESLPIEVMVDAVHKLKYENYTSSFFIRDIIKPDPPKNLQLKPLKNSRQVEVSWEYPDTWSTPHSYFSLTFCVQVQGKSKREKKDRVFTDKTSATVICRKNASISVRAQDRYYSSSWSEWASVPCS
Sequence of IL-23 alanine shave mutant M7 (human) (chain, as listed by the source mutant limits assumed, form in doubt, chain 1 of 2): as the sequence (chain, as listed by the source M54A M54A, chain 1 of 2) above, with A35M, W123A, E124A, T125A, Q126A, Q127A counted along it
Sequence of IL-23 alanine shave mutant M7 (human) (P29460 23-328 limits assumed, change not shown, form in doubt, chain 2 of 2): as the sequence (P29460 23-328, chain 2 of 2) above
Sequence of IL-23 D118A (human) (chain, as listed by the source D118A D118A, chain 1 of 2): as the sequence (chain, as listed by the source M54A M54A, chain 1 of 2) above, with A35M, D99A counted along it
Sequence of IL-23 D118A (human) (P29460 23-328, chain 2 of 2): as the sequence (P29460 23-328, chain 2 of 2) above
Sequence of IL-23 D55A (human) (chain, as listed by the source D55A D55A, chain 1 of 2): as the sequence (chain, as listed by the source M54A M54A, chain 1 of 2) above, with A35M, D36A counted along it
Sequence of IL-23 D55A (human) (P29460 23-328, chain 2 of 2): as the sequence (P29460 23-328, chain 2 of 2) above
Sequence of IL-23 alanine shave mutant M10 (human) (chain, as listed by the source mutant limits assumed, form in doubt, chain 1 of 2): as the sequence (chain, as listed by the source M54A M54A, chain 1 of 2) above, with H34A, D36A, F144A counted along it
Sequence of IL-23 alanine shave mutant M10 (human) (P29460 23-328 limits assumed, change not shown, form in doubt, chain 2 of 2): as the sequence (P29460 23-328, chain 2 of 2) above
Sequence of IL-23 H53A (human) (chain, as listed by the source H53A H53A, chain 1 of 2): as the sequence (chain, as listed by the source M54A M54A, chain 1 of 2) above, with H34A, A35M counted along it
Sequence of IL-23 H53A (human) (P29460 23-328, chain 2 of 2): as the sequence (P29460 23-328, chain 2 of 2) above
Sequence of IL-23 E112A (human) (chain, as listed by the source E112A E112A, chain 1 of 2): as the sequence (chain, as listed by the source M54A M54A, chain 1 of 2) above, with A35M, E93A counted along it
Sequence of IL-23 E112A (human) (P29460 23-328, chain 2 of 2): as the sequence (P29460 23-328, chain 2 of 2) above
Sequence of wild-type IL-23 (His-tagged p19 / non-tagged p40) (human) (chain, as listed by the source limits assumed, chain 1 of 2): as the sequence (chain, as listed by the source M54A M54A, chain 1 of 2) above, with A35M counted along it
Sequence of wild-type IL-23 (His-tagged p19 / non-tagged p40) (human) (P29460 23-328 limits assumed, chain 2 of 2): as the sequence (P29460 23-328, chain 2 of 2) above
Sequence of IL-23 alanine shave mutant M9 (human) (chain, as listed by the source mutant limits assumed, form in doubt, chain 1 of 2): as the sequence (chain, as listed by the source M54A M54A, chain 1 of 2) above, with A35M, L97A, D99A, Q104A counted along it
Sequence of IL-23 alanine shave mutant M9 (human) (P29460 23-328 limits assumed, change not shown, form in doubt, chain 2 of 2): as the sequence (P29460 23-328, chain 2 of 2) above
Sequence of IL-23 L116A (human) (chain, as listed by the source L116A L116A, chain 1 of 2): as the sequence (chain, as listed by the source M54A M54A, chain 1 of 2) above, with A35M, L97A counted along it
Sequence of IL-23 L116A (human) (P29460 23-328, chain 2 of 2): as the sequence (P29460 23-328, chain 2 of 2) above
Sequence of IL-23 alanine shave mutant M5 (human) (chain, as listed by the source mutant limits assumed, form in doubt, chain 1 of 2): as the sequence (chain, as listed by the source M54A M54A, chain 1 of 2) above, with H34A, E93A, L97A, D99A counted along it
Sequence of IL-23 alanine shave mutant M5 (human) (P29460 23-328 limits assumed, stated change not applied, form in doubt, chain 2 of 2): as the sequence (P29460 23-328, chain 2 of 2) above

| IC50, pSTAT3 in BaF3/huIL-23Rα/huIL-12Rβ1 transfectants [1] [pM] | IC50, pSTAT3 in BaF3/huIL-23Rα/huIL-12Rβ1 transfectants [2] [pM] | IC50, pSTAT3 in BaF3/huIL-23Rα/huIL-12Rβ1 transfectants [3] [pM] | IC50, pSTAT3 in BaF3/huIL-23Rα/huIL-12Rβ1 transfectants [4] [pM] | IC50, pSTAT3 in BaF3/huIL-23Rα/huIL-12Rβ1 transfectants (IL-23 D118A (human) [5]) | IC50, pSTAT3 in BaF3/huIL-23Rα/huIL-12Rβ1 transfectants (IL-23 D55A (human) [6]) | IC50, pSTAT3 in BaF3/huIL-23Rα/huIL-12Rβ1 transfectants (IL-23 E112A (human) [7]) | IC50, pSTAT3 in BaF3/huIL-23Rα/huIL-12Rβ1 transfectants (IL-23 H53A (human) [8]) | IC50, pSTAT3 in BaF3/huIL-23Rα/huIL-12Rβ1 transfectants (IL-23 L116A (human) [9]) | IC50, pSTAT3 in BaF3/huIL-23Rα/huIL-12Rβ1 transfectants (IL-23 M54A (human) [10]) | IC50, pSTAT3 in BaF3/huIL-23Rα/huIL-12Rβ1 transfectants [11] | also measured | Substance |
| --- | --- | --- | --- | --- | --- | --- | --- | --- | --- | --- | --- | --- |
| 350 | 310 | 260 | 380 | 0.22 nM | 0.18 nM | > 0.003 µM | 0.19 nM | 0.24 nM | 0.27 nM | 0.18 nM |  | Merck's IL-23 p19 mAb (7G10) (antibody) |
| 71 | 59 | 67 | 79 | 52 pM | 77 pM | 33 pM | 78 pM | 54 pM | 81 pM | 67 pM | IC50, pSTAT3 in BaF3/huIL-23Rα/huIL-12Rβ1 transfectants [12]: 62 pM; ΔΔG (IL-23 D118A (human) [13]): -0.3 kcal/mol; ΔΔG (IL-23 D55A (human) [14]): 0.5 kcal/mol; ΔΔG (IL-23 E112A (human) [15]): 0.3 kcal/mol; ΔΔG (IL-23 H53A (human) [16]): 0.3 kcal/mol; ΔΔG (IL-23 L116A (human) [17]): 0.5 kcal/mol; ΔΔG (IL-23 M54A (human) [18]): 0.3 kcal/mol; ΔΔG [19]: 0.3 kcal/mol; ΔΔG [20]: 0.1 kcal/mol; ΔΔG [21]: 0.1 kcal/mol; ΔΔG [22]: 0.1 kcal/mol | STELARA® (ustekinumab, IL-12/IL-23 p40 mAb) (antibody) |
